From article PMC5063613 (Molecular Biology of the Cell, 2016) come the findings set out here.

Usually stoichiometry N stands for a count of units in the complex or per binding partner.

The target of this test is T1, GFP-C9orf72 (human, UniProt Q96LT7-1 1-481).
T1 sequence: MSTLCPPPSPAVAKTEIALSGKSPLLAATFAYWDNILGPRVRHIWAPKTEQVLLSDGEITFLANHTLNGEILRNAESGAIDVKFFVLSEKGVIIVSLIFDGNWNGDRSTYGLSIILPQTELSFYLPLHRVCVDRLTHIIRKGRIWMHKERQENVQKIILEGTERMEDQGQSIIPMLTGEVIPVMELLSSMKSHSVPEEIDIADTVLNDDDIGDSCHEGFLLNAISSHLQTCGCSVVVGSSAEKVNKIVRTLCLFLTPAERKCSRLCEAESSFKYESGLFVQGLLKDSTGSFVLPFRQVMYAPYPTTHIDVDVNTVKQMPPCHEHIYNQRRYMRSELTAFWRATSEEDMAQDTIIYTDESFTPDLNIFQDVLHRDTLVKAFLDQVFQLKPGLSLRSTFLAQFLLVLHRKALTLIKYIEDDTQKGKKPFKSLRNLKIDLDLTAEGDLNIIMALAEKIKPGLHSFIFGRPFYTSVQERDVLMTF
Put plainly: co-IP.

B1: SMCR8-tdTomato (natural protein)
chain: MISAPDVVAFTKEEEYEEEPYNEPALPEEYSVPLFPFASQGANPWSKLSGAKFSRDFILISEFSEQVGPQPLLTIPNDTKVFGTFDLNYFSLRIMSVDYQASFVGHPPGSAYPKLNFVEDSKVVLGDSKEGAFAYVHHLTLYDLEARGFVRPFCMAYISADQHKIMQQFQELSAEFSRASECLKTGNRKAFAGELEKKLKDLDYTRTVLHTETEIQKKANDKGFYSSQAIEKANELASVEKSIIEHQDLLKQIRSYPHRKLKGHDLCPGEMEHIQDQASQASTTSNPDESADTDLYTCRPAYTPKLIKAKSTKCFDKKLKTLEELCDTEYFTQTLAQLSHIEHMFRGDLCYLLTSQIDRALLKQQHITNFLFEDFVEVDDRMVEKQESIPSKPSQDRPPSSSLEECPIPKVLISVGSYKSSVESVLIKMEQELGDEEYKEVEVTELSSFDPQENLDYLDMDMKGSISSGESIEVLGTEKSTSVLSKSDSQASLTVPLSPQVVRSKAVSHRTISEDSIEVLSTCPSEALIPDDFKASYPSAINEEESYPDGNEGAIRFQASISPPELGETEEGSIENTPSQIDSSCCIGKESDGQLVLPSTPAHTHSDEDGVVSSPPQRHRQKDQGFRVDFSVENANPSSRDNSCEGFPAYELDPSHLLASRDISKTSLDNYSDTTSYVSSVASTSSDRIPSAYPAGLSSDRHKKRAGQNALKFIRQYPFAHPAIYSLLSGRTLVVLGEDEAIVRKLVTALAIFVPSYGCYAKPVKHWASSPLHIMDFQKWKLIGLQRVASPAGAGTLHALSRYSRYTSILDLDNKTLRCPLYRGTLVPRLADHRTQIKRGSTYYLHVQSMLTQLCSKAFLYTFCHHLHLPTHDKETEELVASRQMSFLKLTLGLVNEDVRVVQYLAELLKLHYMQESPGTSHPMLRFDYVPSFLYKI
As for B1, the “stoichiometry N” value is approximately 1.
